These results are taken from article PMC5342242, “Altering the N-terminal arms of the polymerase manager protein UmuD modulates protein interactions” (PLoS ONE, 2017).

Data set [1] concerns the molecule itself. In words: cross-linking; 10 mM bis(maleimido)hexane (BMH), 40 μM protein, 10 min at room temperature; cross-linked dimers seen by Coomassie-stained SDS-PAGE.
The target of data set [2] is T1, DNA polymerase III α subunit truncation α1–280 (E. coli, UniProt P10443 1-280).
T1 construct: α polymerase subunit of DNA polymerase III, E. coli, residues 1–280; also called N-terminal domain of α; PHP domain; source: described previously [21]
The data set is described as follows: other fluorescence titration; intrinsic tryptophan fluorescence of α; UmuD titrated into a solution of α; equilibrium Kd. To be noted: both partners purified.

Data set [3] has as its target T2, DNA polymerase III α subunit, full-length (E. coli, UniProt P10443 1-1160, in the FRET assay only: labeled with Alexa Fluor 647 C2-maleimide).
T2 construct: α polymerase subunit of DNA polymerase III, E. coli, full-length; Unlabelled in the tryptophan fluorescence titration; also called pol III α; full-length α; source: purified; as previously described [21]
The data set is described as above. To be noted: both partners purified.

In data set [4] the target is T3, DNA polymerase III α subunit truncation α917–1160 (E. coli, UniProt P10443 917-1160).
T3 construct: α polymerase subunit of DNA polymerase III, E. coli, residues 917–1160; also called C-terminal fragment of α; source: described previously [21]
The description is as above. To be noted: both partners purified.

T2 sequence (P10443 whole entry): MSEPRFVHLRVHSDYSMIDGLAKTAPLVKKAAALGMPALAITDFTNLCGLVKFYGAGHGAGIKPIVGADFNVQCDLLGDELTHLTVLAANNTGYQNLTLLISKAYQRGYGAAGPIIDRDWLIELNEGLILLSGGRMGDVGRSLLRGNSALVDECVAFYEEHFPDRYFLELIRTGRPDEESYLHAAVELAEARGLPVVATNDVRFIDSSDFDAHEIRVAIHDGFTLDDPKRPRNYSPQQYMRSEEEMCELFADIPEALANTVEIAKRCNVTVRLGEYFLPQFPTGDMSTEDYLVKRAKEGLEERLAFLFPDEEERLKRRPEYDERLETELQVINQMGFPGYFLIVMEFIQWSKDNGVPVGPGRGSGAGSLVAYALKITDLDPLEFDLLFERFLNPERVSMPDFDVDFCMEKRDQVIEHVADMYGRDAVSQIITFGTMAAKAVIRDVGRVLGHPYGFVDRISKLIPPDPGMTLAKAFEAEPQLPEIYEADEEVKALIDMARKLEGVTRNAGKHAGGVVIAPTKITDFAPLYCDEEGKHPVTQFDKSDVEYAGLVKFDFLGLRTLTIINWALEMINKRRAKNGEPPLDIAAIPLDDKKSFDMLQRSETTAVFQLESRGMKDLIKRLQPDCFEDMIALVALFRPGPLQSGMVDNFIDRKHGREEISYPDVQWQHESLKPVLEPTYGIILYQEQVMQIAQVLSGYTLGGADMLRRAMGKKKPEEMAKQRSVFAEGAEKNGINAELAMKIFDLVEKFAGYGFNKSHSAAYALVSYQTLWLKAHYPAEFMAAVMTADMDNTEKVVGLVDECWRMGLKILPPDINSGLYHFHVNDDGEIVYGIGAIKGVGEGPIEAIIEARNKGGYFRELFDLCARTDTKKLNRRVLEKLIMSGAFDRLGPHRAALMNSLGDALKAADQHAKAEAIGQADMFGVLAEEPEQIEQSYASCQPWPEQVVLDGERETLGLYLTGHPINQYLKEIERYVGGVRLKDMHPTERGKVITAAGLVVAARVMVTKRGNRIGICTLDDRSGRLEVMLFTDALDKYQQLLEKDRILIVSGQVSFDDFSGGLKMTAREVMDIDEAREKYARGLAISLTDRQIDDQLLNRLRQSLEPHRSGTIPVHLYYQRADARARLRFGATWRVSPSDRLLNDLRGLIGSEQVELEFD
T3 sequence (P10443 917-1160): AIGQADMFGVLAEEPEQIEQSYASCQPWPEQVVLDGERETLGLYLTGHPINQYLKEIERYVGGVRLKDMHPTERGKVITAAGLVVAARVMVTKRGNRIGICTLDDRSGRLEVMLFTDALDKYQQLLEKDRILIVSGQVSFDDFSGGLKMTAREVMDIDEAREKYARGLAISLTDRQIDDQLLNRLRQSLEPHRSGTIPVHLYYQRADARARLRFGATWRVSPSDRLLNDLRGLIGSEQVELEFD
T1 sequence (P10443 1-280): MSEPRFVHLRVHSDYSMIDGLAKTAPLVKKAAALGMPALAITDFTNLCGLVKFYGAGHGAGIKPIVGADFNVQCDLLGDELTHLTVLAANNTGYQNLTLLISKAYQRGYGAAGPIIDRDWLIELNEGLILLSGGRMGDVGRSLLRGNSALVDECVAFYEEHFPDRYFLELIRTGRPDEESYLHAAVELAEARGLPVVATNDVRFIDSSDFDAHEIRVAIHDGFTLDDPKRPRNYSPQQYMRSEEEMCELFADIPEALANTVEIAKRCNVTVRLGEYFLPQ

B1: UmuD 3A (natural protein, E. coli, UniProt P0AG11 1-139, looked up)
chain: MLFIKPADLREIVAFPAASDLVQCGFPSPAADYVEQRIDLNQLLIQHPSATYFVKASGDSMIDGGISDGDLLIVDSAITASHGDIVIAAVDGEFTVKKLQLRPTVQLIPMNSAYSPITISSEDTLDVFGVVIHVVKAMR
notes: UmuD, E. coli, full-length arms, three alanine mutations T14A L17A F18A; also called UmuD T14A L17A F18A; source: purified; not further stated
As to B1, in data set [1], the percent cross-linked dimers is 41%.

B2: UmuD S60A (natural protein, E. coli, UniProt P0AG11 1-139, looked up)
chain: MLFIKPADLREIVTFPLFSDLVQCGFPSPAADYVEQRIDLNQLLIQHPSATYFVKASGDAMIDGGISDGDLLIVDSAITASHGDIVIAAVDGEFTVKKLQLRPTVQLIPMNSAYSPITISSEDTLDVFGVVIHVVKAMR
notes: UmuD, E. coli, full-length 139 residues, non-cleavable active-site variant S60A; also called full-length UmuD-S60A; active site variant UmuD S60A; source: purified; expression from pSG5 as previously described [33, 34]
In data set [1], B2 had a percent cross-linked dimers of 31%.

B3: wild-type UmuD (natural protein, E. coli, UniProt P0AG11 1-139, looked up)
chain: MLFIKPADLREIVTFPLFSDLVQCGFPSPAADYVEQRIDLNQLLIQHPSATYFVKASGDSMIDGGISDGDLLIVDSAITASHGDIVIAAVDGEFTVKKLQLRPTVQLIPMNSAYSPITISSEDTLDVFGVVIHVVKAMR
notes: UmuD, E. coli, full-length, 139 residues; also called WT UmuD; full-length UmuD; source: purified; expression from pSG5 as previously described [33, 34]
On to B3, for which, in data set [1], the percent cross-linked dimers came out at 25%.

B4: UmuD S60A C24A A7C (natural protein, E. coli, UniProt P0AG11 1-139, looked up)
chain: MLFIKPCDLREIVTFPLFSDLVQAGFPSPAADYVEQRIDLNQLLIQHPSATYFVKASGDAMIDGGISDGDLLIVDSAITASHGDIVIAAVDGEFTVKKLQLRPTVQLIPMNSAYSPITISSEDTLDVFGVVIHVVKAMR
notes: UmuD, E. coli, with the full-length arm; single cysteine moved from position 24 to position 7; S60A; also called UmuD A7C C24A S60A; source: purified; not further stated
With B4, the percent cross-linked dimers in data set [1] was 71%.

B5: UmuD 8 S60A (domain or fragment, E. coli, UniProt P0AG11 8-139, looked up)
chain: DLREIVTFPLFSDLVQCGFPSPAADYVEQRIDLNQLLIQHPSATYFVKASGDAMIDGGISDGDLLIVDSAITASHGDIVIAAVDGEFTVKKLQLRPTVQLIPMNSAYSPITISSEDTLDVFGVVIHVVKAMR
notes: UmuD, E. coli, lacking the N-terminal 7 residues (Δ1–7) of the 139-residue full-length protein; non-cleavable active-site variant S60A; Plasmid pSG5 derivative; also called UmuD Δ1–7 S60A; source: constructed in pSG5, expressed and purified as previously described [33, 34]
Usually Kd stands for the free concentration of one partner at which half of the binding sites on the other are occupied at equilibrium, for simple one-to-one binding. The low end stands for higher affinity, the high end for lower affinity. On to B5, for which the Kd was determined as 3.5 ± 0.8 µM in data set [2], 8.1 ± 0.9 µM in data set [3] and 0.2 ± 0.4 µM in data set [4]. The same molecule yielded a percent cross-linked dimers in data set [1] of 32%.

B6: UmuD 18 S60A (domain or fragment, E. coli, UniProt P0AG11 18-139, looked up)
chain: FSDLVQCGFPSPAADYVEQRIDLNQLLIQHPSATYFVKASGDAMIDGGISDGDLLIVDSAITASHGDIVIAAVDGEFTVKKLQLRPTVQLIPMNSAYSPITISSEDTLDVFGVVIHVVKAMR
notes: UmuD, E. coli, lacking the N-terminal 17 residues (Δ1–17) of the 139-residue full-length protein; non-cleavable active-site variant S60A; Plasmid pSG5 derivative; also called UmuD Δ1–17 S60A; source: constructed in pSG5, expressed and purified as previously described [33, 34]
With B6, the figures for the Kd in data set [2], in data set [3] and in data set [4] were 5.9 ± 0.9 µM, 12.2 ± 0.2 µM and 3.6 ± 0.4 µM, respectively. The same molecule yielded a percent cross-linked dimers in data set [1] of 39%.
